Results: PMC4538837, “Structural basis for substrate recognition and processive cleavage mechanisms of the trimeric exonuclease PhoExo I”

Molecular target: PhoExo I D80N (Pyrococcus horikoshii OT3, UniProt A0A060P168 1-229, D80N)
Experiment: X-ray crystal structure (1.95 A); Mg2+ (soaked), one at A metal site; EMSA: 25 mM Hepes-NaOH pH 7.5, 50 mM NaCl, 0.1 mM EDTA, 0.1 mg/ml BSA, 5 nM probe, 0-1600 nM trimer, 5 min 55 C, then 0.05% glutaraldehyde 10 min at room temperature; 7.5% native PAGE in TBE
Conditions: protein: recombinant; tags: C-terminal 4xHis (mutants made from the CHis plasmid; crystal construct not detailed in the material); chain copies: 3; single strand; 3 copies per trimer

Chain of PhoExo I D80N (A0A060P168 entry or part of it D80N | D80N D80N): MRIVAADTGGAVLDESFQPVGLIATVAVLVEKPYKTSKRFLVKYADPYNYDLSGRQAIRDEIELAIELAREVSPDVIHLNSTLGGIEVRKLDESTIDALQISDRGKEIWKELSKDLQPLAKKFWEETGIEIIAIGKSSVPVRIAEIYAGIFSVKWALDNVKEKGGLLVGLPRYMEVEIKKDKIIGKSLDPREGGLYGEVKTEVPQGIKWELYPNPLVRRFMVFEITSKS

TTTTTTT (ssDNA) [poly-dT 7 nt]: binds.
